Test results as given in the supplement of paper PMC10567573.

B1: SMOC2 (parent)
chain: QKPLCASDGRTFLSRCEFQRAKCK

Variants of: B1
Assay: protein stability index of a GFP-peptide fusion (GPS, HEK-293T) (PSI 1-6); higher = more stable
Conditions: c terminus: a fixed tail appended
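Note: lentivirally expressed fusions sorted by FACS into six bins by GFP to DsRed ratio, PSI derived from sequencing read proportions per bin multiplied by bin number.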

Protein stability index: each site, then its substitutions
K2: M 3.87; P 3.18; R 3.47; S 2.93; T 3.18; V 2.97; W 2.48; Y 2.48
P3: A 2.36; C 2.39; E 4.05; F 1.89; G 2.5; H 2.17; I 2.16; K 2.42; L 2.67; M 3.12; N 2.2; Q 2.28; R 3.19; T 2.81; V 2.31; W 1.53; Y 2.83
L4: D 3.83; E 3.77; F 2.18; H 2.59; I 2.31; K 2.52; M 2.29; N 3.08; P 2.79; Q 2.81; R 3.25; S 3.35; T 2.65; V 2.52; W 2.51; Y 1.99
C5: A 3.31; D 3.29; F 2.01; G 2.44; H 2.7; I 1.74; K 2.19; N 4.28; P 2.94; Q 2.88; R 2.5; S 2.91; T 3.41; V 3.16; W 2.31; Y 2.38
A6: C 2.57; D 2.9; F 1.89; G 2.38; H 3.61; I 2.74; K 2.82; L 2.47; M 2.48; N 2.63; P 3.32; Q 3.21; R 2.74; S 3.44; T 2.42; V 3.69; W 2.69; Y 2.71
S7: A 2.33; C 1.82; D 3.36; E 2.86; F 2.8; H 2.57; I 2.31; K 3.32; L 2.82; M 1.67; N 3.76; P 3.45; Q 2; R 2.38; T 2.5; V 2.59; W 2.85; Y 2.15
D8: A 2.37; C 1.63; E 3.66; F 1.94; H 2.52; I 2.35; K 2.56; L 1.97; M 2.63; N 2.77; P 2.75; Q 1.93; R 3.23; T 2.9; V 2.76; Y 2.67
G9: A 2.58; C 2.35; D 3.99; E 3.48; F 2.2; H 2.75; I 1.9; K 2.14; L 2.68; M 3.19; N 2.82; P 2.45; Q 2.64; R 2.94; S 3.42; T 2.67; V 2.93; W 2.82; Y 1.9
R10: A 3.24; C 2.89; D 3.76; E 3.27; F 2.95; G 3.17; H 2.71; I 2.53; K 2.96; L 3.04; M 2.72; N 1.99; P 3.11; Q 3.33; S 3.84; T 3.54; V 4.03; W 2.58; Y 2.91
T11: A 3.12; C 2.05; D 3.33; E 3.89; F 2.09; G 2.6; H 2.38; I 2.71; K 4.04; L 2.68; M 2.89; N 3.06; P 3.37; Q 3.74; R 2.52; S 3.14; V 2.33; W 2.81; Y 2.03
F12: A 3.84
